Assay results as given in patent publication EP1882698A1 (Chemokine Therapeutics Corp., dated 2008).
Non-standard residues stand in square brackets, D forms with d. No end group written: not given here. Aun = NCCCCCCCCCCC(=O)O

T1: CXCR3 receptor (UniProt P49682 1-368, limits assumed)
T1 sequence (looked up): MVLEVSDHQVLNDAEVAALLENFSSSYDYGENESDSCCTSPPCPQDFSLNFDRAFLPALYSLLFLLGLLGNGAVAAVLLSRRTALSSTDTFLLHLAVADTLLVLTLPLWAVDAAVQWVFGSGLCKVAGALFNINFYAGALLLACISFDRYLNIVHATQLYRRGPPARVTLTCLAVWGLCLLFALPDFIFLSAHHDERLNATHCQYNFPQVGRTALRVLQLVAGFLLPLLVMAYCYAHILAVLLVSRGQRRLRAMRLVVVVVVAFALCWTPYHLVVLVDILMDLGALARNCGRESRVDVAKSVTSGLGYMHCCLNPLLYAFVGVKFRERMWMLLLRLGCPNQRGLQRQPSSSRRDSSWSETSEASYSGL


Target: T1, CXCR3 receptor
Assay: cell-based or functional assay

Binder	calcium mobilization activity of CXCR-3/300-19 cells, dosage 1.2 µM	calcium mobilization activity of CXCR-3/300-19 cells, dosage 3.7 µM	calcium mobilization activity of CXCR-3/300-19 cells, dosage 11.1 µM	calcium mobilization activity of CXCR-3/300-19 cells, dosage 33.3 µM	calcium mobilization activity of CXCR-3/300-19 cells, dosage 100 µM
VPLSRTVRSTSISIS[Aun]ESKAIENLLKAVSK [[Ser^9,Ser^11,Glu^63]-IP-10-(1-15)-[linker]-IP-10-(58-71)]	18.8	18.5	17.2	18.9	46.6
Ac-VPLSRTVRCTCISISN[Aun]LKAVSKEMSKRSP (cysteine pairing not given here) [Acetylated-IP-10-(1-16)-[linker]-IP-10-(66-78)]	12.6	12.7	14.1	20	52.9

The next lines start with the values.

calcium mobilization activity of CXCR-3/300-19 cells, dosage 1.2 µM	calcium mobilization activity of CXCR-3/300-19 cells, dosage 3.7 µM	calcium mobilization activity of CXCR-3/300-19 cells, dosage 11.1 µM	calcium mobilization activity of CXCR-3/300-19 cells, dosage 33.3 µM	calcium mobilization activity of CXCR-3/300-19 cells, dosage 100 µM	Binder
17.4	15.4	12.5	13.3	3.4	VPLSRTVRSTSISIS[Aun]ESKAIKNLLEAVSK [[Ser^9,Ser^11,Glu^67]-IP-10-(1-15)-[linker]-IP-10-(58-71)]
16	14	14.4	18.6	55.1	VPLSRTPRCTCISIS[Aun]ESKAIKNLLKAVSK (cysteine pairing not given here) [[Pro^7]-IP-10-(1-15)-[linker]-IP-10-(58-71)]
15.2	13.8	15.4	20	3.1	Ac-VPLSRTVRATFISISN[Aun]LKAVSKEMSKRSP [Acetylated-[Ala^9,Phe^11]-IP-10-(1-16)-[linker]-IP-10-(66-78)]
